Tests used:
[1] = molecular target: receptor on VERO E6 cells (not identified in the filing); test: flow cytometry on VERO E6 cells, FITC anti-human IgG Fc
[2] = molecular target: receptor on VERO E6 cells (not identified in the filing)
[3] = molecular target: receptors in NIH 3T3 cells (not identified in the filing); test: flow cytometry on NIH 3T3 cells, FITC anti-human IgG Fc

S1-Fc fusion protein (from UniProt P59594 14-333)
concentration at which it bound [1]: 1 µg/mL

S2-Fc fusion protein (from UniProt P59594 334-666)
avidity [2]: 1 µM | concentration at which it bound [1]: 0.1 µg/mL | concentration at which it bound [3]: 1 µg/mL

S3-Fc fusion protein (from UniProt P59594 667-999)
concentration at which it bound [3]: 0.1 µg/mL
